Data taken from the supplement of paper PMC5998384.

Experiments:
HeLa Kyoto [1] = experiment: solubility in G1/S (NP-40 vs SDS abundance) (log2 ratio); higher = more soluble; conditions: cell cycle stage: G1/S
HeLa Kyoto [2] = experiment: solubility change mitosis vs G1/S (difference of NP-40 vs SDS log2 ratios) (log2 ratio difference); higher = more soluble in mitosis
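Throughout, for solubility change mitosis vs G1/S (difference of NP-40 vs SDS log2 ratios): synchronized HeLa Kyoto cells (double thymidine block for G1/S, nocodazole release for mitosis), protein amounts in NP-40 versus SDS lysates quantified by mass spectrometry, three biological replicates.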
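Throughout, for solubility in G1/S (NP-40 vs SDS abundance): HeLa Kyoto cells arrested at G1/S by double thymidine block, proteins quantified by TMT10plex mass spectrometry in mild NP-40 versus SDS extracts, three biological replicates.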

Sequence | solubility in G1/S (log2) (HeLa Kyoto [1]) | solubility change mitosis (log2) (HeLa Kyoto [2])
MASKRKSTTPCMIPVKTVVLQDASMEAQPAETLPEGPQQDLPPEASAASSEAAQNPSSTDGSTLANGHRSTLDGYLYSCKYCDFRSHDMTQFVGHMNSEHTDFNKDPTFVCSGCSFLAKTPEGLSLHNATCHSGEASFVWNVAKPDNHVVVEQSIPESTSTPDLAGEPSAEGADGQAEIIITKTPIMKIMKGKAEAKKIHTLKENVPSQPVGEALPKLSTGEMEVREGDHSFINGAVPVSQASASSAKNPHAANGPLIGTVPVLPAGIAQFLSLQQQPPVHAQHHVHQPLPTAKALPKVMIPLSSIPTYNAAMDSNSFLKNSFHKFPYPTKAELCYLTVVTKYPEEQLKIWFTAQRLKQGISWSPEEIEDARKKMFNTVIQSVPQPTITVLNTPLVASAGNVQHLIQAALPGHVVGQPEGTGGGLLVTQPLMANGLQATSSPLPLTVTSVPKQPGVAPINTVCSNTTSAVKVVNAAQSLLTACPSITSQAFLDASIYKNKKSHEQLSALKGSFCRNQFPGQSEVEHLTKVTGLSTREVRKWFSDRRYHCRNLKGSRAMIPGDHSSIIIDSVPEVSFSPSSKVPEVTCIPTTATLATHPSAKRQSWHQTPDFTPTKYKERAPEQLRALESSFAQNPLPLDEELDRLRSETKMTRREIDSWFSERRKKVNAEETKKAEENASQEEEEAAEDEGGEEDLASELRVSGENGSLEMPSSHILAERKVSPIKINLKNLRVTEANGRNEIPGLGACDPEDDESNKLAEQLPGKVSCKKTAQQRHLLRQLFVQTQWPSNQDYDSIMAQTGLPRPEVVRWFGDSRYALKNGQLKWYEDYKRGNFPPGLLVIAPGNRELLQDYYMTHKMLYEEDLQNLCDKTQMSSQQVKQWFAEKMGEETRAVADTGSEDQGPGTGELTAVHKGMGDTYSEVSENSESWEPRVPEASSEPFDTSSPQAGRQLETD [ZHX3] | 0.105 | -0.0607
MASSSGSSPRPAPDENEFPFGCPPTVCQDPKEPRALCCAGCLSENPRNGEDQICPKCRGEDLQSISPGSRLRTQEKAHPEVAEAGIGCPFAGVGCSFKGSPQSVQEHEVTSQTSHLNLLLGFMKQWKARLGCGLESGPMALEQNLSDLQLQAAVEVAGDLEVDCYRAPCSESQEELALQHFMKEKLLAELEGKLRVFENIVAVLNKEVEASHLALATSIHQSQLDRERILSLEQRVVELQQTLAQKDQALGKLEQSLRLMEEASFDGTFLWKITNVTRRCHESACGRTVSLFSPAFYTAKYGYKLCLRLYLNGDGTGKRTHLSLFIVIMRGEYDALLPWPFRNKVTFMLLDQNNREHAIDAFRPDLSSASFQRPQSETNVASGCPLFFPLSKLQSPKHAYVKDDTMFLKCIVETST [TRAF1] | 0.254 | -0.305
MSVDKAELCGSLLTWLQTFHVPSPCASPQDLSSGLAVAYVLNQIDPSWFNEAWLQGISEDPGPNWKLKVSNLKMVLRSLVEYSQDVLAHPVSEEHLPDVSLIGEFSDPAELGKLLQLVLGCAISCEKKQDHIQRIMTLEESVQHVVMEAIQELMTKDTPDSLSPETYGNFDSQSRRYYFLSEEAEEGDELQQRCLDLERQLMLLSEEKQSLAQENAGLRERMGRPEGEGTPGLTAKKLLLLQSQLEQLQEENFRLESGREDERLRCAELEREVAELQHRNQALTSLAQEAQALKDEMDELRQSSERAGQLEATLTSCRRRLGELRELRRQVRQLEERNAGHAERTRQLEDELRRAGSLRAQLEAQRRQVQELQGQRQEEAMKAEKWLFECRNLEEKYESVTKEKERLLAERDSLREANEELRCAQLQPRGLTQADPSLDPTSTPVDNLAAEILPAELRETLLRLQLENKRLCRQEAADRERQEELQRHLEDANRARHGLETQHRLNQQQLSELRAQVEDLQKALQEQGGKTEDAISILLKRKLEEHLQKLHEADLELQRKREYIEELEPPTDSSTARRIEELQHNLQKKDADLRAMEERYRRYVDKARMVMQTMEPKQRPAAGAPPELHSLRTQLRERDVRIRHLEMDFEKSRSQREQEEKLLISAWYNMGMALQQRAGEERAPAHAQSFLAQQRLATNSRRGPLGRLASLNLRPTDKH [HOOK2] | 0.231 | -0.0619
MPALLERPKLSNAMARALHRHIMMERERKRQEEEEVDKMMEQKMKEEQERRKKKEMEERMSLEETKEQILKLEEKLLALQEEKHQLFLQLKKVLHEEEKRRRKEQSDLTTLTSAAYQQSLTVHTGTHLLSMQGSPGGHNRPGTLMAADRAKQMFGPQVLTTRHYVGSAAAFAGTPEHGQFQGSPGGAYGTAQPPPHYGPTQPAYSPSQQLRAPSAFPAVQYLSQPQPQPYAVHGHFQPTQTGFLQPGGALSLQKQMEHANQQTGFSDSSSLRPMHPQALHPAPGLLASPQLPVQMQPAGKSGFAATSQPGPRLPFIQHSQNPRFYHK [GPS2] | 0.416 | -0.0529
MATPGPVIPEVPFEPSKPPVIEGLSPTVYRNPESFKEKFVRKTRENPVVPIGCLATAAALTYGLYSFHRGNSQRSQLMMRTRIAAQGFTVAAILLGLAVTAMKSRP [HIGD2A] | -0.399 | 0.482
MNVTSIALRAETWLLAAWHVKVPPMWLEACINWIQEENNNVNLSQAQMNKQVFEQWLLTDLRDLEHPLLPDGILEIPKGELNGFYALQINSLVDVSQPAYSQIQKLRGKNTTNDLVTAEAQVTPKPWEAKPSRMLMLQLTDGIVQIQGMEYQPIPILHSDLPPGTKILIYGNISFRLGVLLLKPENVKVLGGEVDALLEEYAQEKVLARLIGEPDLVVSVIPNNSNENIPRVTDVLDPALGPSDEELLASLDENDELTANNDTSSERCFTTGSSSNTIPTRQSSFEPEFVISPRPKEEPSNLSIHVMDGELDDFSLEEALLLEETVQKEQMETKELQPLTFNRNADRSIERFSHNPNTTNNFSLTCKNGNNNWSEKNVSEQMTNEDKSFGCPSVRDQNRSIFSVHCNVPLAHDFTNKEKNLETDNKIKQTSSSDSHSLNNKILNREVVNYVQKRNSQISNENDCNLQSCSLRSSENSINLSIAMDLYSPPFVYLSVLMASKPKEVTTVKVKAFIVTLTGNLSSSGGIWSITAKVSDGTAYLDVDFVDEILTSLIGFSVPEMKQSKKDPLQYQKFLEGLQKCQRDLIDLCCLMTISFNPSLSKAMVLALQDVNMEHLENLKKRLNK [RMI1] | -0.0709 | 0.0277
MRPKTFPATTYSGNSRQRLQEIREGLKQPSKSSVQGLPAGPNSDTSLDAKVLGSKDATRQQQQMRATPKFGPYQKALREIRYSLLPFANESGTSAAAEVNRQMLQELVNAGCDQEMAGRALKQTGSRSIEAALEYISKMGYLDPRNEQIVRVIKQTSPGKGLMPTPVTRRPSFEGTGDSFASYHQLSGTPYEGPSFGADGPTALEEMPRPYVDYLFPGVGPHGPGHQHQHPPKGYGASVEAAGAHFPLQGAHYGRPHLLVPGEPLGYGVQRSPSFQSKTPPETGGYASLPTKGQGGPPGAGLAFPPPAAGLYVPHPHHKQAGPAAHQLHVLGSRSQVFASDSPPQSLLTPSRNSLNVDLYELGSTSVQQWPAATLARRDSLQKPGLEAPPRAHVAFRPDCPVPSRTNSFNSHQPRPGPPGKAEPSLPAPNTVTAVTAAHILHPVKSVRVLRPEPQTAVGPSHPAWVPAPAPAPAPAPAPAAEGLDAKEEHALALGGAGAFPLDVEYGGPDRRCPPPPYPKHLLLRSKSEQYDLDSLCAGMEQSLRAGPNEPEGGDKSRKSAKGDKGGKDKKQIQTSPVPVRKNSRDEEKRESRIKSYSPYAFKFFMEQHVENVIKTYQQKVNRRLQLEQEMAKAGLCEAEQEQMRKILYQKESNYNRLKRAKMDKSMFVKIKTLGIGAFGEVCLACKVDTHALYAMKTLRKKDVLNRNQVAHVKAERDILAEADNEWVVKLYYSFQDKDSLYFVMDYIPGGDMMSLLIRMEVFPEHLARFYIAELTLAIESVHKMGFIHRDIKPDNILIDLDGHIKLTDFGLCTGFRWTHNSKYYQKGSHVRQDSMEPSDLWDDVSNCRCGDRLKTLEQRARKQHQRCLAHSLVGTPNYIAPEVLLRKGYTQLCDWWSVGVILFEMLVGQPPFLAPTPTETQLKVINWENTLHIPAQVKLSPEARDLITKLCCSADHRLGRNGADDLKAHPFFSAIDFSSDIRKQPAPYVPTISHPMDTSNFDPVDEESPWNDASEGSTKAWDTLTSPNNKHPEHAFYEFTFRRFFDDNGYPFRCPKPSGAEASQAESSDLESSDLVDQTEGCQPVYV [LATS2] | 0.178 | -0.0575
MTSKGPEEEHPSVTLFRQYLRIRTVQPKPDYGAAVAFFEETARQLGLGCQKVEVAPGYVVTVLTWPGTNPTLSSILLNSHTDVVPVFKEHWSHDPFEAFKDSEGYIYARGAQDMKCVSIQYLEAVRRLKVEGHRFPRTIHMTFVPDEEVGGHQGMELFVQRPEFHALRAGFALDEGIANPTDAFTVFYSERSPWWVRVTSTGRPGHASRFMEDTAAEKLHKVVNSILAFREKEWQRLQSNPHLKEGSVTSVNLTKLEGGVAYNVIPATMSASFDFRVAPDVDFKAFEEQLQSWCQAAGEGVTLEFAQKWMHPQVTPTDDSNPWWAAFSRVCKDMNLTLEPEIMPAATDNRYIRAVGVPALGFSPMNRTPVLLHDHDERLHEAVFLRGVDIYTRLLPALASVPALPSDS [ACY1] | 0.288 | -0.0632
MHPGGGPSRAERLELGLGRERPAKAIFLHRRPGEGGGRERCLRCGHVCVRRGPGPREAVPSGRPRPDTLTPPWVRQRAVTGTFCASWTPLRNRRAQRMATDMQRKRSSECLDGTLTPSDGQSMERAESPTPGMAQGMEPGAGQEGAMFVHARSYEDLTESEDGAASGDSHKEGTRGPPPLPTDMRQISQDFSELSTQLTGVARDLQEEMLPGSSEDWLEPPGAVGRPATEPPREGTTEGDEEDATEAWRLHQKHVFVLSEAGKPVYSRYGSEEALSSTMGVMVALVSFLEADKNAIRSIHADGYKVVFVRRSPLVLVAVARTRQSAQELAQELLYIYYQILSLLTGAQLSHIFQQKQNYDLRRLLSGSERITDNLLQLMARDPSFLMGAARCLPLAAAVRDTVSASLQQARARSLVFSILLARNQLVALVRRKDQFLHPIDLHLLFNLISSSSSFREGEAWTPVCLPKFNAAGFFHAHISYLEPDTDLCLLLVSTDREDFFAVSDCRRRFQERLRKRGAHLALREALRTPYYSVAQVGIPDLRHFLYKSKSSGLFTSPEIEAPYTSEEEQERLLGLYQYLHSRAHNASRPLKTIYYTGPNENLLAWVTGAFELYMCYSPLGTKASAVSAIHKLMRWIRKEEDRLFILTPLTY [MON1A] | 0.0361 | -0.081
MQGSTRRMGVMTDVHRRFLQLLMTHGVLEEWDVKRLQTHCYKVHDRNATVDKLEDFINNINSVLESLYIEIKRGVTEDDGRPIYALVNLATTSISKMATDFAENELDLFRKALELIIDSETGFASSTNILNLVDQLKGKKMRKKEAEQVLQKFVQNKWLIEKEGEFTLHGRAILEMEQYIRETYPDAVKICNICHSLLIQGQSCETCGIRMHLPCVAKYFQSNAEPRCPHCNDYWPHEIPKVFDPEKERESGVLKSNKKSLRSRQH [NSMCE1] | 0.0262 | -0.0633
MKLHYVAVLTLAILMFLTWLPESLSCNKALCASDVSKCLIQELCQCRPGEGNCSCCKECMLCLGALWDECCDCVGMCNPRNYSDTPPTSKSTVEELHEPIPSLFRALTEGDTQLNWNIVSFPVAEELSHHENLVSFLETVNQPHHQNVSVPSNNVHAPYSSDKEHMCTVVYFDDCMSIHQCKISCESMGASKYRWFHNACCECIGPECIDYGSKTVKCMNCMF [TWSG1] | 0.0362 | -0.383
